According to patent US9809627B2, “Cyclized transthyretin peptide and methods of use therefor” (Wisconsin Alumni Research Foundation, priority 2014, dated 2017):
Where no end group is shown, it is not given here. [ ]: non-standard residue; d: D form.

Experiments:
Aβ = biological target: T1, Aβ (Homo sapiens, UniProt P05067); test: Enzyme-linked immunoassay of Aβ binding to immobilized CG3-biotin in presence of serum proteins; conditions: Aβ 1, 3 or 5 μg/mL in PBS with 10% or 30% FBS
T1 construct: Amyloid-beta (Aβ or Abeta) denotes peptides of 36-43 amino acids
Text: Evidence of interaction between Aβ and peptide investigated by enzyme-linked immunoassay. CG3 was synthesized with an appending polyethylene glycol (PEG) linker attached to biotin. This was achieved by replacing Val at the 3rd position with Glu and on-column addition of PEG and biotin to the Glu side chain. […] After further washing, Aβ was detected using monoclonal anti-Aβ antibody and Superclonal-HRP. […] Open symbols/dashed lines are negative control (immobilized PEG-biotin linker).
Briefly, CG3 was synthesized with an appended flexible PEG linker and biotin. […] Aβ was prepared at 1, 3, or 5 μg/mL in PBS, or in PBS containing 10 (vol/vol) % or 30 (vol/vol) % fetal bovine serum (FBS, charcoal-treated). […] Aβ solutions were added to the CG3-coated wells and then incubated to allow binding. After washing, Aβ was detected by anti-Aβ antibody (6E10 or 4G8) and Superclonal-HRP.

Aβ (1-40) [1] = biological target: T2, Aβ (1-40) (Homo sapiens, UniProt P05067); test: Filtration/sedimentation assay of Aβ aggregation; format: biochemical
T2 construct: Aβ (1-40) was purchased from Anaspec, Inc. (Fremont, Calif.) as lyophilized powder; purchased Anaspec, Inc. (Fremont, Calif.)
Experimental: (§1) Aβ (1-40) was purchased from Anaspec, Inc. (Fremont, Calif.) as lyophilized powder. For dynamic light scattering, ThT fluorescence assay, TEM, NTA measurement and filtration/sedimentation assay, Aβ was dissolved in 50% ACN, re-lyophilized, and reconstituted in 8M urea at 12 mg/mL. Aβ stock was then aliquoted, snap-frozen in ethanol with dry ice, and stored at −80° C. For PICUP and proteolytic fragmentation analysis, lyophilized Aβ was dissolved in prechilled hexafluoroisopropanol (HFIP, Acros Organics, Geel, Belgium), aliquoted, dried and stored at −20° C. as previously described (Cho et al., 2014). Aβ sample was prepared right before use by dissolving dried peptides in 50 mM NaOH and diluting into phosphate-buffered saline (PBSA) (10 mM Na2HPO4/NaH2PO4, 150 mM NaCL and 0.02% NaN3 (pH 7.4)) to 30 μM as previously described (Cho et al., 2014).
Aβ alone (30 μM) or with CG3 (3 μM) was prepared in PBSA and incubated for 24 hr at 37° C. For filtration, 175 μL of sample was filtered through 0.45 μm filter. For sedimentation, 100 μL of sample was transferred onto a separate tube and centrifuged for 30 min at 19,500 ref. The supernatant (80%) was removed. Concentrations of untreated, filtered, and centrifuged samples were measured by BCA assay (Pierce).

Aβ (1-40) [2] = biological target: T2, Aβ (1-40); test: Transmission electron microscopy of Aβ aggregates; format: biochemical; conditions: 48 h at 37° C., 28 μM Aβ, 2.8 μM peptide
Experimental: as §1
Aβ alone (28 μM) or with peptides (G16 or CG3 at 2.8 μM) were prepared in PBSA and incubated for 48 hr at 37° C. A drop of sample was placed on a pioloform-coated grid and stained with methylamine tungstate stain. Images were taken with a Philips CM120 scanning transmission electron microscope (FEI Corp., Eindhoven, The Netherlands).

[3] = system: primary cortical neuronal cells; test: In vitro cellular toxicity of Aβ (1-42), MTS assay; format: cell-based, mice; conditions: 10 μM peptide, 10 μM Aβ
Experimental: Aβ toxicity was assessed as described in detail previously (Yang et al., 2013; Cho et al., 2014). Briefly, the primary cortical neuronal cells were cultured from embryonic 15.5 day mice and were maintained in neurobasal media till they are matured. Aβ (1-42) (American Peptide, Sunnyvale, Calif.) at 1 mg/mL in PBS was diluted to 10 μM without or with peptides as previously described (Cho et al., 2014). At 6 days in vitro (DIV), the cells were treated with either Aβ alone or Aβ incubated with different doses of mTTR and peptides. Appropriate vehicle and controls were run along with the treatments. At 8 DIV, the neurons were incubated with MTS reagent (Promega) as per manufacturer protocol for 2-3 hrs and absorbance was measured at 490 nm.

SKVVT^DPPRYTIAALLSPYSYSQ [CG3] (chain 1 SKVVT[dP]PRYTIAALLSPYSYSQ; chain 2 SKVVT[dP]PRYTIAALLSPYSYSQ; also: head-to-tail to a chain's N/C-terminus) [cyclic 22-mer of TTR residues 104-123 grafted onto DPro-Pro template]
binding of Aβ to immobilized peptide (Aβ): serum proteins do not interfere with Aβ binding
effect on fraction of Aβ aggregates removable by filtration or sedimentation (Aβ (1-40) [1]): reduce the fraction of Aβ aggregates that can be removed by filtration or sedimentation
fraction of Aβ-peptide mixture filterable through 0.45 μm filter (Aβ (1-40) [1]; 30 μM Aβ, 10:1 Aβ excess, at either 0 or 24 hours, 37° C.): about 90%
fraction of Aβ-peptide mixture remaining in solution after centrifugation (Aβ (1-40) [1]; after 24 hours, centrifuged 30 min, supernatant): 91%
morphology of Aβ aggregates by TEM (Aβ (1-40) [2]): strikingly lower density of aggregates
protection against Aβ toxicity [3]: significant protection
